Blank lines part the entries; values can stand above or below the binder they belong to.
How the values were obtained:
[1] = target: グリセルアルデヒド由来AGEs含有ウシ血清アルブミン(Glycer−AGEs−BSA) (bovine) (UniProt P02769); assay: SPR, Biacore T200; Glycer-AGEs-BSA amine-coupled on CM5, antibody 0-400 nM
[2] = target: Glycer−AGEs由来新規構造体修飾―ウシ血清アルブミン(GAL13−BSA) (bovine) (UniProt P02769); assay: SPR, Biacore T200; GAL13-BSA amine-coupled on CM5
[3] = target: A−peakを架橋させたBSA(A−peak−BSA) (bovine) (UniProt P02769); assay: SPR, Biacore T200; A-peak-BSA amine-coupled on CM5 (72 RU), antibody 0.1953-50 nM, 1:1 binding model

Kd [1]: 57.4 nM | Kd [2]: 87.5 nM
B1: 新規モノクローナル抗体SJ−5 (antibody, V domains shown)
VH: EVMLVESGGRLVKPGGSLKLSCAASGFTFSSYGMSWVRQTPEKRLEWVATISGGGSYTYYPDSVKGRFTISRDNVKNNLYLQMSSLRSEDTALYYCARRGAYGDYGWFAYWGQGTLVTVSA
VL: DIVLTQSPATLSVTPGDSVSLSCRASQSINNNLHWYQQKSHESPRLLIKCASQSISGIPSRFSGSGSGTDFTLSINSVETEDFGMYFCQQSNSWPLTFGAGTKLELK

Kd [3]: 4.15 nM
B2: 新規モノクローナル抗体PB−1 (antibody, V domains shown)
VH: EVRLQQSGPELVKPGTSVKISCKASGYSFTGYYMHWVKQSPVKSLEWIGRIIPYNGATSYNQNFKDKASLTVDKSSRTAYMDLHSLTSEDSAVYYCARSRYYGRAPYYFDYWGQGTTLTVSS
VL: DVVVTQTPLSLPVSLGDQASISCRSSQSIVHSNGNTYLEWYLQKPGQSPKLLIYKVSNRFSGVPDRISGSGSGTDFTLKISRVEAGDLGVYSCFQGSHVPFTFGSGTKLEIK

— patent publication JP2021136920A
